Test results: patent publication US20120090043A1, “TARGETS FOR RETROVIRUS ASSOCIATED DISEASES” (priority 2009, published 2012)

B1: FANCG: human host interactor protein, Gene ID 2189, expressed from transfected ORF vector (protein)
chain: MSRQTTSVGSSCLDLWREKNDRLVRQAKVAQNSGLTLRRQQLAQDALEGLRGLLHSLQGLPAAVPVLPLELTVTCNFIILRASLAQGFTEDQAQDIQRSLERVLETQEQQGPRLEQGLRELWDSVLRASCLLPELLSALHRLVGLQAALWLSADRLGDLALLLETLNGSQSGASKDLLLLLKTWSPPAEELDAPLTLQDAQGLKDVLLTAFAYRQGLQELITGNPDKALSSLHEAASGLCPRPVLVQVYTALGSCHRKMGNPQRALLYLVAALKEGSAWGPPLLEASRLYQQLGDTTAELESLELLVEALNVPCSSKAPQFLIEVELLLPPPDLASPLHCGTQSQTKHILASRCLQTGRAGDAAEHYLDLLALLLDSSEPRFSPPPSPPGPCMPEVFLEAAVALIQAGRAQDALTLCEELLSRTSSLLPKMSRLWEDARKGTKELPYCPLWVSATHLLQGQAWVQLGAQKVAISEFSRCLELLFRATPEEKEQGAAFNCEQGCKSDAALQQLRAAALISRGLEWVASGQDTKALQDFLLSVQMCPGNRDTYFHLLQTLKRLDRRDEATALWWRLEAQTKGSHEDALWSLPLYLESYLSWIRPSDRDAFLEEFRTSLPKSCDL
B2: DLX2: human host interactor protein, Gene ID 1746, expressed from transfected ORF vector (protein)
chain: MTGVFDSLVADMHSTQIAASSTYHQHQQPPSGGGAGPGGNSSSSSSLHKPQESPTLPVSTATDSSYYTNQQHPAGGGGGGGSPYAHMGSYQYQASGLNNVPYSAKSSYDLGYTAAYTSYAPYGTSSSPANNEPEKEDLEPEIRIVNGKPKKVRKPRTIYSSFQLAALQRRFQKTQYLALPERAELAASLGLTQTQVKIWFQNRRSKFKKMWKSGEIPSEQHPGASASPPCASPPVSAPASWDFGVPQRMAGGGGPGSGGSGAGSSGSSPSSAASAFLGNYPWYHQTSGSASHLQATAPLLHPTQTPQPHHHHHHHGGGGAPVSAGTIF
B3: C16orf33: human host interactor protein, Gene ID 79622, expressed from transfected ORF vector (protein)
chain: MDVFQEGLAMVVQDPLLCDLPIQVTLEEVNSQIALEYGQAMTVRVCKMDGEVMPVVVVQSATVLDLKKAIQRYVQLKQEREGGIQHISWSYVWRTYHLTSAGEKLTEDRKKLRDYGIRNRDEVSFIKKLRQK
B4: TRAF2: human host interactor protein, Gene ID 7186, expressed from transfected ORF vector (protein)
chain: MAAASVTPPGSLELLQPGFSKTLLGTKLEAKYLCSACRNVLRRPFQAQCGHRYCSFCLASILSSGPQNCAACVHEGIYEEGISILESSSAFPDNAARREVESLPAVCPSDGCTWKGTLKEYESCHEGRCPLMLTECPACKGLVRLGEKERHLEHECPERSLSCRHCRAPCCGADVKAHHEVCPKFPLTCDGCGKKKIPREKFQDHVKTCGKCRVPCRFHAIGCLETVEGEKQQEHEVQWLREHLAMLLSSVLEAKPLLGDQSHAGSELLQRCESLEKKTATFENIVCVLNREVERVAMTAEACSRQHRLDQDKIEALSSKVQQLERSIGLKDLAMADLEQKVLEMEASTYDGVFIWKISDFARKRQEAVAGRIPAIFSPAFYTSRYGYKMCLRIYLNGDGTGRGTHLSLFFVVMKGPNDALLRWPFNQKVTLMLLDQNNREHVIDAFRPDVTSSSFQRPVNDMNIASGCPLFCPVSKMEAKNSYVRDDAIFIKAIVDLTGL
B5: TRIP6: human host interactor protein, Gene ID 7205, expressed from transfected ORF vector (protein)
chain: MSGPTWLPPKQPEPARAPQGRAIPRGTPGPPPAHGAALQPHPRVNFCPLPSEQCYQAPGGPEDRGPAWVGSHGVLQHTQGLPADRGGLRPGSLDAEIDLLSSTLAELNGGRGHASRRPDRQAYEPPPPPAYRTGSLKPNPASPLPASPYGGPTPASYTTASTPAGPAFPVQVKVAQPVRGCGPPRRGASQASGPLPGPHFPLPGRGEVWGPGYRSQREPGPGAKEEAAGVSGPAGRGRGGEHGPQVPLSQPPEDELDRLTKKLVHDMNHPPSGEYFGQCGGCGEDVVGDGAGVVALDRVFHVGCFVCSTCRAQLRGQHFYAVERRAYCEGCYVATLEKCATCSQPILDRILRAMGKAYHPGCFTCVVCHRGLDGIPFTVDATSQIHCIEDFHRKFAPRCSVCGGAIMPEPGQEETVRIVALDRSFHIGCYKCEECGLLLSSEGECQGCYPLDGHILCKACSAWRIQELSATVTTDC
B6: TEX11: human host interactor protein, Gene ID 56159, expressed from transfected ORF vector (protein)
chain: MISAHCNLRLLCSSDSSASASQVAGTTEVVENLVTNDNSPNIPEAIDRLFSDIANINRESMAEITDIQIEEMAVNLWNWALTIGGGWLVNEEQKIRLHYVACKLLSMCEASFASEQSIQRLIMMNMRIGKEWLDAGNFLIADECFQAAVASLEQLYVKLIQRSSPEADLTMEKITVESDHFRVLSYQAESAVAQGDFQRASMCVLQCKDMLMRLPQMTSSLHHLCYNFGVETQKNNKYEESSFWLSQSYDIGKMDKKSTGPEMLAKVLRLLATNYLDWDDTKYYDKALNAVNLANKEHLSSPGLFLKMKILLKGETSNEELLEAVMEILHLDMPLDFCLNIAKLLMDHERESVGFHFLTIIHERFKSSENIGKVLILHTDMLLQRKEELLAKEKIEEIFLAHQTGRQLTAESMNWLHNILWRQAASSFEVQNYTDALQWYYYSLRFYSTDEMDLDFTKLQRNMACCYLNLQQLDKAKEAVAEAERHDPRNVFTQFYIFKIAVIEGNSERALQAIITLENILTDEESEDNDLVAERGSPTMLLSLAAQFALENGQQIVAEKALEYLAQHSEDQEQVLTAVKCLLRFLLPKIAEMPESEDKKKEMDRLLTCLNRAFVKLSQPFGEEALSLESRANEAQWFRKTAWNLAVQCDKDPVMMREFFILSYKMSQFCPSDQVILIARKTCLLMAVAVDLEQGRKASTAFEQTMFLSRALEEIQTCNDIHNFLKQTGTFSNDSCEKLLLLYEFEVRAKLNDPLLESFLESVWELPHLETKTFETIAIIAMEKPAHYPLIALKALKKALLLYKKEEPIDISQYSKCMHNLVNLSVPDGASNVELCPLEEVWGYFEDALSHISRTKDYPEMEILWLMVKSWNTGVLMFSRSKYASAEKWCGLALRFLNHLTSFKESYETQMNMLYSQLVEALSNNKGPVFHEHGYWSKSD
B7: SPAG5: human host interactor protein, Gene ID 10615, expressed from transfected ORF vector (protein)
chain: MWRVKKLSLSLSPSPQTGKPSMRTPLRELTLQPGALTNSGKRSPACSSLTPSLCKLGLQEGSNNSSPVDFVNNKRTDLSSEHFSHSSKWLETCQHESDEQPLDPIPQISSTPKTSEEAVDPLGNYMVKTIVLVPSPLGQQQDMIFEARLDTMAETNSISLNGPLRTDDLVREEVAPCMGDRFSEVAAVSEKPIFQESPSHLLEESPPNPCSEQLHCSKESLSSRTEAVREDLVPSESNAFLPSSVLWLSPSTALAADFRVNHVDPEEEIVEHGAMEEREMRFPTHPKESETEDQALVSSVEDILSTCLTPNLVEMESQEAPGPAVEDVGRILGSDTESWMSPLAWLEKGVNTSVMLENLRQSLSLPSMLRDAAIGTTPFSTCSVGTWFTPSAPQEKSTNTSQTGLVGTKHSTSETEQLLCGRPPDLTALSRHDLEDNLLSSLVILEVLSRQLRDWKSQLAVPHPETQDSSTQTDTSHSGITNKLQHLKESHEMGQALQQARNVMQSWVLISKELISLLHLSLLHLEEDKTTVSQESRRAETLVCCCFDLLKKLRAKLQSLKAEREEARHREEMALRGKDAAEIVLEAFCAHASQRISQLEQDLASMREFRGLLKDAQTQLVGLHAKQEELVQQTVSLTSTLQQDWRSMQLDYTTWTALLSRSRQLTEKLTVKSQQALQERDVAIEEKQEVSRVLEQVSAQLEECKGQTEQLELENSRLATDLRAQLQILANMDSQLKELQSQHTHCAQDLAMKDELLCQLTQSNEEQAAQWQKEEMALKHMQAELQQQQAVLAKEVRDLKETLEFADQENQVAHLELGQVECQLKTTLEVLRERSLQCENLKDTVENLTAKLASTIADNQEQDLEKTRQYSQKLGLLTEQLQSLTLFLQTKLKEKTEQETLLLSTACPPTQEHPLPNDRTFLGSILTAVADEEPESTPVPLLGSDKSAFTRVASMVSLQPAETPGMEESLAEMSIMTTELQSLCSLLQESKEEAIRTLQRKICELQARLQAQEEQHQEVQKAKEADIEKLNQALCLRYKNEKELQEVIQQQNEKILEQIDKSGELISLREEVTHLTRSLRRAETETKVLQEALAGQLDSNCQPMATNWIQEKVWLSQEVDKLRVMFLEMKNEKEKLMIKFQSHRNILEENLRRSDKELEKLDDIVQHIYKTLLSIPEVVRGCKELQGLLEFLS
B8: C20orf141: human host interactor protein, Gene ID 128653, expressed from transfected ORF vector (protein)
chain: MTRLCLPRPEAREDPIPVPPRGLGAGEGSGSPVRPPVSTWGPSWAQLLDSVLWLGALGLTIQAVFSTTGPALLLLLVSFLTFDLLHRPAGHTLPQRKLLTRGQSQGAGEGPGQQEALLLQMGTVSGQLSLQDALLLLLMGLGPLLRACGMPLTLLGLAFCLHPWA

How the values were obtained:
[1] = test system: HIV-1 LTR promoter transactivation by HIV-1 Tat; assay: Transactivation assay, HIV-1 LTR luciferase reporter with HIV-1 Tat; type: cell-based; conditions: HEK293 cells co-transfected with pHIV1LTR-Luc, HIV-1 Tat and the human ORF; relative luciferase activity 24 h post-transfection; positive if >=2 or <=0.5 and p<0.05
Method in brief: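 HEK293 cells (10^4) were calcium-phosphate co-transfected with the HIV-1 LTR-luciferase reporter plus HIV-1 Tat, or the HTLV-1 LTR-luciferase reporter plus HTLV-1 Tax, each with a human ORF expression plasmid. A hit required relative activity ≥2 or ≤0.5 with paired t-test p<0.05.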

[2] = test system: HTLV-1 LTR promoter transactivation by HTLV-1 Tax; assay: Transactivation assay, HTLV-1 LTR luciferase reporter with HTLV-1 Tax; type: cell-based; conditions: HEK293 cells co-transfected with pHTLV1LTR-Luc, HTLV-1 Tax and the human ORF; relative luciferase activity 24 h post-transfection; positive if >=2 or <=0.5 and p<0.05

| Molecule | HIV_LTR transactiv. [1] [fold change] | HTLV_LTR transactiv. [2] [fold change] |
| --- | --- | --- |
| B1 | 0.27 | 3.48 |
| B2 | 0.24 | 0.30 |
| B3 | 2.50 | – |
| B4 | 0.22 | – |
| B5 | 2.87 | – |
| B6 | 4.41 | – |
| B7 | 0.16 | – |
| B8 | 0.35 | 2.80 |
